One series deals with T1, Factor Xa (Homo sapiens, UniProt P00742).
T1 construct: purchased R&D Systems (Bio-techne) 1063-SE-010
The series can be described thus: 30-mer library counter-screening MSP-MS, Factor Xa. It counts as biochemical. As for the experimental part: (§1) Protease specificity screening was performed using Multiplexed Substrate Profiling by Mass Spectrometry (MSP-MS), the method described in, e.g. O'Donoghue A. J. et al., Nat Methods., 2012; 9(11): 1095-1100. This method employs a physico-chemically diverse peptide library as substrates for proteases, and reactions are monitored over time with mass spectrometric detection of cleaved products. The resulting cleavages are assessed for specific cleavage in the enzyme-treated sample by comparison with results from a no-enzyme control incubation.
(§2) Enzymes were activated and assayed following the manufacturer's recommendations.
Factor Xa was assayed at 4.7 nM enzyme, at 37° C. in the manufacturer recommended buffer: 50 mM TRIS, 10 mM CaCl2, 150 mM NaCl, pH 7.5.
(§3) Counter-screening was performed against the enzymes Thrombin, Factor Xa and Hepsin using this library as well, and for calibration of activity, a positive-control peptide bearing favorable motifs for these enzymes was also designed (ALU30-19).
Catalytic efficiency (kcat/KM) estimations were used to rank the top cleaved substrates in the MSP-MS reaction. Peptides were quantified by mass spectrometric label-free quantitation from the MS1 precursor ion peak areas for each peptide. Enzyme progress curves were modeled from six-time point measurements in GraphPad Prism. […]
On the technique in general: Counterscreens check selectivity or assay interference.

A further series deals with T2, Hepsin (Homo sapiens, UniProt P05981).
T2 construct: purchased R&D Systems (Bio-techne) 4776-SE
T2 sequence (P05981 163-417 limits assumed): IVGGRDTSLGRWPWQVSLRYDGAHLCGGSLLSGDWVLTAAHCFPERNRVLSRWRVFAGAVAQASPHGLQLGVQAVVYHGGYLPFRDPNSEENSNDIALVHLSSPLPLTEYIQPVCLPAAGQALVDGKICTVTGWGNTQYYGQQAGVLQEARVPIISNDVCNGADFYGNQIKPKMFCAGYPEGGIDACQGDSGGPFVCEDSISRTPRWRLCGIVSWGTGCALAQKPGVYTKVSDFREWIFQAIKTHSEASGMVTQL
T2 sequence (P05981 1-162 partner limits assumed): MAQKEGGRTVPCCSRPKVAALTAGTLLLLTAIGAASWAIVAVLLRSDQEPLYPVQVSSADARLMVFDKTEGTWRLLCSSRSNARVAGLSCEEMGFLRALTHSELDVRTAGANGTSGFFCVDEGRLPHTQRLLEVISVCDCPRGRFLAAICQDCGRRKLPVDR
Kind of series: 30-mer library counter-screening MSP-MS, Hepsin. It counts as biochemical. How it is done: as §1, §2
Hepsin was pre-activated overnight at 37° C. in the manufacturer recommended buffer: 100 mM TRIS, 10 mM CaCl2, 150 mM NaCl, 0.05% Brij-35, pH 8.0. Activity was measured with 2.4 or 24 nM enzyme in the buffer: 50 mM TRIS HCl at pH 7.4.
as §3
(§4) Catalytic efficiency (kcat/KM) estimations were used to rank the top cleaved substrates in the MSP-MS reaction. Peptides were quantified by mass spectrometric label-free quantitation from the MS1 precursor ion peak areas for each peptide. Enzyme progress curves were modeled from six-time point measurements in GraphPad Prism. Data were fitted using non-linear least squares fitting to the first order kinetics equation:
(§5) [formula] where Y=percent product formation or substrate consumption, and t=time. The observed rate is a function of the enzyme concentration [E0], and an observed catalytic efficiency (kcat/KM) in units M^−1s^−1
Counter-screening with Thrombin, Factor Xa and Hepsin was also performed following the same analysis. The library peptide Alu30-19 was designed to include authentic sites for each enzyme, for comparison of overall cleavage efficiency as well as cleavage site specificity within each motif. The substrate designed for Factor Xa has the motif FNPR|TFGS (SEQ ID NO: 248), derived from the Factor Xa cleavage site in Thrombin. The substrate motif for Thrombin was FPR|, a common tool substrate motif. The substrate motif for hepsin was RKRR|GSRG (SEQ ID NO: 249) from filaggrin.

Series [1] concerns full set of five targeted enzymes; thrombin, Factor Xa, and hepsin. Kind of series: 30-mer tandem linker design: comparison of cleavage efficiencies across enzymes. It is filed as biochemical, human. The source says: To generate the most efficient tandem linker, the cleavage efficiencies for each of the targeted enzymes toward the 30-mer library peptides can be compared (FIG. 64).
Replacement of the ADAM17_2 motif with ADAM17_i may also enhance activity toward FAP-alpha and CTSL1, even if ADAM17 activity enhancement is minor, and hepsin susceptibility would be predicted to be reduced.

Series [2] has as its target T3, CTSL1 (Homo sapiens, UniProt P07711). Kind of series: In vitro FRET kinetics with CTSL1. It is filed as biochemical. As for the experimental part:
as §2
(§6) For CTSL1, enzyme was activated by pre-incubation in assay buffer (50 mM MES, 5 mM DTT, 1 mM EDTA, pH=6) for 15 min. MSP-MS reactions were then started with the mixing of enzyme and substrate, at final CTSL1 concentration of 0.04 ng/μl (0.77 nM), and peptide substrate concentration at 500 nM.
Additional in vitro kinetic experiments were performed to characterize a new candidate motif for CTSL1 enzyme; the CTSL1_2 motif has the sequence […] (SEQ ID NO: 199). […] Yet, initial experiments with the CTSL1_2 FRET substrate were inconclusive, possibly due to artifacts in the FRET assay; therefore, a new FRET peptide construct was designed with the 9-mer sequence […] (SEQ ID NO: 236).
All of the FRET substrates used in these studies have a methoxycoumarin (Mca) fluorophore and dinitrophenyl-lysyl (Dnp) quencher pair at the N- and C-termini of the sequences, respectively.

For a further series, the target named is T4, Cathepsin K (CTSK) (Homo sapiens, UniProt P43235).
T4 sequence (P43235 115-329): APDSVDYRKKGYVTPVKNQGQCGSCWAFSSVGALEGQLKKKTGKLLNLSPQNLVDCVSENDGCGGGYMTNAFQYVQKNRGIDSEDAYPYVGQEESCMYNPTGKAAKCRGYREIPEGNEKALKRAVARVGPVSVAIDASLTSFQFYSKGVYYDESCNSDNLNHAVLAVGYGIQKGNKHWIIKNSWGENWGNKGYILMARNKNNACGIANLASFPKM
Kind of series: Counter-screening of CTSL1 FRET substrates with Cathepsin K. It is filed as biochemical. The settings on record: specific activity. As for the experimental part: Counter-screening of CTSL1_1 and CTSL1_2 was performed with the enzyme Cathepsin K (CTSK). […] For comparison, the specific activity for reference substrates such as Z-LR-AMC and Z-FR-AMC is 15,000-25,000 pmol/min/μg, with the average value indicated by a dashed line in FIG. 47.

The target of series [3] is T3, CTSL1. The series can be described thus: 30-mer tandem linker library MSP-MS, CTSL1. It is filed as biochemical. How it is done: as §1, §2, §6
This hypothesis was tested in the context of the hybrid linker design experiment. Shown in FIG. 46 are the results of cleavage of two matched 30-mer peptides with the following sequences:
To analyze the catalytic efficiency of candidate tandem linker designs, a tailored library approach using MSP-MS was applied. For the tailored library, a set of nineteen synthetic peptides, 30 amino acids in length (30-mers), were designed to test whether sequence context affects the efficiency of cleavage. Peptides were assayed in a multiplex format together as a substrate library with individual recombinant enzymes, using MSP-MS. For quantitative comparisons, kinetic analysis was performed over a time course, and results are reported either as a catalytic efficiency kcat/KM for well-behaved first-order kinetics, or as observed rates as kobs for more complex kinetic behavior.
as §4, §5

The test system of series [4] is activated T cells relative to NK cells. The settings on record: cited from earlier work.
For series [5] the following is noted: cited from earlier work.
Setting [6] is: matched 30-mer peptides SEQ ID NO: 207 (CTSL1_1) and 219 (CTSL1_2).

Entries after “also recorded” stand apart in the source; their conditions may differ. No end group written: not given here. Some results are limits rather than exact numbers.

T3 sequence (P07711 114-333): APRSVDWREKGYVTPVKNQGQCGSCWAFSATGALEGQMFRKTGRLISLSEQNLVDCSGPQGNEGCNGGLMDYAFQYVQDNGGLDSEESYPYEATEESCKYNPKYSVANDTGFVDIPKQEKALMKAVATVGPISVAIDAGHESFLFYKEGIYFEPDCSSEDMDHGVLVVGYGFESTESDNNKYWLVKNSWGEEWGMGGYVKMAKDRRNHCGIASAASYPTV
T1 sequence (P00742 235-488 limits assumed): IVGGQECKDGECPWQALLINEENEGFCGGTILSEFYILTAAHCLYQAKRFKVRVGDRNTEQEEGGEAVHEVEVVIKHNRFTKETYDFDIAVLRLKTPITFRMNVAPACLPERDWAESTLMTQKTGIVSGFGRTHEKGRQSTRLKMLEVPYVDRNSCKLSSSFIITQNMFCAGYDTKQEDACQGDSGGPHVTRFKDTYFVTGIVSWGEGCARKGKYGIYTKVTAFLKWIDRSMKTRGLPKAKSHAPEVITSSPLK
T1 sequence (P00742 41-179 partner limits assumed): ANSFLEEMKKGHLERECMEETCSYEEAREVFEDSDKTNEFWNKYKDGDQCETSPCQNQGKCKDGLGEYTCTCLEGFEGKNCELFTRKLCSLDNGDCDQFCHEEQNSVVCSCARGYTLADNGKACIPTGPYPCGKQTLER

Take “SGGFPRSGGSFNPRTFGSKRKRRGSRGGGG [Alu30-19, reference compound]”: the “Time to complete degradation by Factor Xa” value with Factor Xa is < 5 min. For the same substance, the “Time to cleavage at all three motifs by hepsin” value with Hepsin is reported as ≤ 15 min. Further, in the series with Hepsin (order of magnitude), the “Apparent catalytic efficiency, hepsin” value is listed as ~10^5 M^−1s^−1.
Take “SGPLAQKLKSSGPAGLYAQALFKSSFPGSK [Alu30-16]”: in series [1], the “Activity toward the full set of five targeted enzymes” value is on record as “generally high activity”; the “Susceptibility to thrombin, Factor Xa, and hepsin” value is reported as “lowest susceptibility”.
Consider “ALFFSSPP (also: FRET fluorophore and quencher) [CTSL1_2]”, for which the “Cleavage of 8-mer FRET substrate by CTSL1” value in the series with CTSL1 [2] (8-mer FRET peptide, Mca/Dnp pair) is “not cleaved”. For the same substance, in the series with CTSL1 [2] (9-mer sequence ALFFSSPPS (SEQ ID NO: 236)), the “Cleavage of 9-mer FRET substrate by CTSL1” value was “comparable catalytic efficiency to the CTSL1_1 motif; also recorded: cleaved as a 9-mer FRET peptide”. Also, the “Cleavage by CTSK, lower level than the CTSL1_1 substrate” value in the series with Cathepsin K (CTSK) was found to be 15 ×. Also, in the series with CTSL1 [3], the “Relative efficiency of 30-mer peptide cleavage by CTSL1” value is listed as “rapidly cleaved”. In the series with CTSL1 [3] (setting [6]), the “+1 site product formation by CTSL1” value is listed as “more rapidly formed” and the “−1 site product formation by CTSL1” value is reported as “did not”. In the series with Hepsin, the “Relative efficiency of cleavage by hepsin” value is “cleaved at a much slower rate than CTSL1_1”.
As to “Bay 50-4798: IL-2 variant IL2/N88R, clinically tested as a low-toxicity version of IL-2”, the “Selectivity of stimulated proliferation” value in series [4] is recorded as “selectively stimulate the proliferation of activated T cells relative to NK cells”. The “Levels of CD4+CD25+ T cells in clinical trials” value in series [5] (cancer patients and HIV patients) is “increased the levels of CD4+CD25+ T cells”. Also, the “Safety and tolerability in clinical trials” value in series [5] (human, in vivo) is “considerably safer and more tolerable than aldesleukin”.
In the case of “KGGALFKSSFPGGPAGIGPLAQKLKSSGGS [Alu30-5]”, the “Relative efficiency of 30-mer peptide cleavage by Factor Xa” value with Factor Xa is “significant cleavage”.

These data come from patent US11739132B2, “Separation moieties and methods of use thereof” (Werewolf Therapeutics, Inc., priority 2019, dated 2023).
